Results taken from US9416353B2, “Covalent tethering of functional groups to proteins and substrates therefor” (Promega Corporation, priority 2004, dated 2016).
Numbering of substitutions follows the chain as printed. In names and notes the source's numbering stands.

B1: DhaA.WT: wild-type Rhodococcus rhodochrous dehalogenase (DhaA), generally GST at the N-terminus and FLAG at the C-terminus (protein, UniProt P0A3G2 1-293, looked up)
Haloalkane dehalogenase: MSEIGTGFPFDPHYVEVLGERMHYVDVGPRDGTPVLFLHGNPTSSYLWRNIIPHVAPSHRCIAPDLIGMGKSDKPDLDYFFDDHVRYLDAFIEALGLEEVVLVIHDWGSALGFHWAKRNPERVKGIACMEFIRPIPTWDEWPEFARETFQAFRTADVGRELIIDQNAFIEGALPKCVVRPLTEVEMDHYREPFLKPVDREPLWRFPNELPIAGEPANIVALVEAYMNWLHQSPVPKLLFWGTPGVLIPPAEAARLAESLPNCKTVDIGPGLHYLQEDNPDLIGSEIARWLPAL
modifications: N-terminal GST, C-terminal FLAG tag
B2: DhaA.H272Q: DhaA mutant, His272 replaced with Gln (protein, UniProt P0A3G2 1-293, looked up, variant H272Q)
Haloalkane dehalogenase: B1 Haloalkane dehalogenase with H272Q
B3: DhaA.H272F YC: DhaA.H272F based mutant with Y273C (protein, UniProt P0A3G2 1-293, looked up, variant H272F Y273C)
Haloalkane dehalogenase: B1 Haloalkane dehalogenase with H272F, Y273C
B4: DhaA.H272F YM: DhaA.H272F based mutant with Y273M (protein, UniProt P0A3G2 1-293, looked up, variant H272F Y273M)
Haloalkane dehalogenase: B1 Haloalkane dehalogenase with H272F, Y273M
B5: DhaA.H272A: DhaA mutant, His272 replaced with Ala (protein, UniProt P0A3G2 1-293, looked up, variant H272A)
Haloalkane dehalogenase: B1 Haloalkane dehalogenase with H272A
B6: DhaA.H272F YL: DhaA.H272F based mutant with Y273L (protein, UniProt P0A3G2 1-293, looked up, variant H272F Y273L)
Haloalkane dehalogenase: B1 Haloalkane dehalogenase with H272F, Y273L
B7: DhaA.H272G: DhaA mutant, His272 replaced with Gly (protein, UniProt P0A3G2 1-293, looked up, variant H272G)
Haloalkane dehalogenase: B1 Haloalkane dehalogenase with H272G
B8: DhaA.H272F H11: first generation DhaA.H272F mutant with K175M and C176G (protein, UniProt P0A3G2 1-293, looked up, variant K175M C176G H272F)
Haloalkane dehalogenase: B1 Haloalkane dehalogenase with K175M, C176G, H272F
B9: DhaA.H272F: DhaA mutant, catalytic His272 replaced with Phe (protein, UniProt P0A3G2 1-293, looked up, variant H272F)
Haloalkane dehalogenase: B1 Haloalkane dehalogenase with H272F
B10: BlaZ.N170Q (protein, UniProt P00807 25-281, looked up, variant N170Q)
Beta-lactamase: KELNDLEKKYNAHIGVYALDTKSGKEVKFNSDKRFAYASTSKAINSAILLEQVPYNKLNKKVHINKDDIVAYSPILEKYVGKDITLKALIEASMTYSDNTANNKIIKEIGGIKKVKQRLKELGDKVTNPVRYEIELNYYSPKSKKDTSTPAAFGKTLNKLIANGKLSKEQKKFLLDLMLNNKSGDTLIKDGVPKDYKVADKSGQAITYASRNDVAFVYPKGQSEPIVLVIFTNKDNKSDKPNDKLISETAKSVMKEF

Tests used:
[1] = pH-indicator dye assay of hydrolysis of Cl-alkanes by DhaA (WT or mutant); format: biochemical; conditions: 0.1 mg/ml of enzyme, 10 mM substrate, pH 7.0-8.2
Source text: To study the effect of a point mutation on the activity of DhaA (WT or mutant) hydrolysis of Cl-alkanes, a pH-indicator dye system as described by Holloway et al. (1998) was employed.

[2] = Precipitation of DhaA.WT and mutants with (NH4)2SO4; format: physicochemical; conditions: 2 hours, 4° C.
Protocol: Aliquots of the supernatant obtained from E. coli expressing DhaA (WT or one of the mutants) were treated with increasing concentrations of (NH4)2SO4. The proteins were exposed to each (NH4)2SO4 concentration for 2 hours (4° C.), pelleted by centrifugation, dialyzed overnight against buffer A, and resolved on SDS-PAGE.

[3] = format: binding; conditions: biotin-PEG4-14-Cl substrate
[4] = Thermostability analysis of purified DhaA mutants (residual labeling activity, FP); format: physicochemical; conditions: for thermostability (residual activity): 60 minute incubations at various temperature
Protocol: The thermostability profiles of the DhaA mutants were determined by measuring the residual activity of the purified proteins following 15, 30 or 60 minute incubations at 4, 22, 30, 37, 42, 50 or 60° C. The FP assay was performed at room temperature (about 25° C.). […] For each clone, the labeling rate (slope of the linear range) was calculated for each condition. The rate observed following a 15 minute incubation at 4° C. was arbitrarily assigned as 100% activity. The residual activity (%) was calculated for each condition. To determine stability, for each incubation time, the % of residual activity was plotted against the incubation temperatures. To calculate half-life, for each incubation temperature, the % of residual activity was plotted against the incubation time. The time where 50% activity was lost was extrapolated from the graph.

[5] = DhaA capture using immobilized biotin chloroalkane substrates (streptavidin plates, ELISA-type); format: binding; conditions: for reaction with immobilized biotin-PEG4-14-Cl: titration
Protocol: Using an excess of substrate (about 2 μmol), the plates could bind approximately 75 μmol of biotin per well. […] Reactions between immobilized substrate and mutant DhaAs were performed using purified GST-DhaA-Flag fusions. Various concentrations of protein (100 μL; diluted in PBSTB) were incubated with immobilized substrate for various times at 25° C., and the reactions were stopped by emptying the plates and washing 4× with PBST. To detect bound DhaA, 100 μL anti-GST-HRP (Amersham) was added to each well at a 1:10,000 dilution (in PBSTB) and the plates incubated for 1 hour at 25° C.

[6] = MagneGST assay
Protocol: Bacterial colonies were picked into 96-well plates containing LB+Amp and incubated with shaking at 30° C. The cultures were diluted 1:20 into 96 well plates containing fresh TB medium, Amp and 0.1 mM IPTG. The plates were incubated at 30° C. with shaking overnight. The 96 well plates containing the IPTG induced cultures were centrifuged and supernatants removed. DhaA mutants were normalized for protein concentration by saturating protein capture on MagneGST™ PMPs. […] The plates were shaken at about 900 rpm for 10 minutes at room temperature. The particles were washed three times with PBST using a MagnaBot® 96 magnetic separation device. The wash solution was removed and MagneGST™ elution solution was added and the plates were allowed to shake at room temperature (about 900 rpm for 5 minutes). Supernatants were transferred to a new, flat bottom, transparent 96 well plate and the fluorescence intensity was measured using an excitation wavelength at 550 nm and an emission wavelength at 580 nm.
Four colonies at random of each identified hit were inoculated into 200 μL LB+Amp and grown overnight at 30° C. in flat bottom 96 well plates. Overnight cultures were diluted 1:50 into 200 μL TB ampicillin supplemented with 0.1 mM IPTG and grown overnight at 30° C. and 37° C. Induced cultures were re-assayed using the MagneGST™ based screen.

[7] = In vivo stability of DhaA mutants in transiently transfected CHO-K1 cells; format: cell-based; conditions: 12, 24 and 48 hours post-transfection
Protocol: (§1) Proteins (2-10 μl/lane) were resolved on SDS-PAGE (4-20% gradient gels).

[8] = In vivo labeling of DhaA mutants expressed in CHO-K1 cells (cell-to-gel analysis); format: cell-based; conditions: 5 μM substrate
Protocol: as §1

[9] = Hydrolysis of FAP by GST-BlaZ (WT or mutants); format: biochemical; conditions: up to 60 minutes of co-incubation
Protocol: The chromogenic substrate 6-β-[(Furylacryloyl)amido]penicillanic acid triethylamine salt (FAP) was purchased from Calbiochem (La Jolla, Calif.). […] All assays were performed at 25° C. in 0.1 M potassium phosphate buffer at pH 6.8.

Molecule | (NH4)2SO4 concentration that precipitates the protein [2] | signal relative to the parental clones [3] | thermostability (residual activity) [4] | other results
B1 |  |  |  | activity with 1-Cl-butane [1]: 5 units/mg of protein
B2 | 10% |  |  | 
B3 |  | significantly improved | relatively unstable at temperatures above 30 °C | 
B4 |  | significantly improved | relatively unstable at temperatures above 30 °C | reaction with immobilized biotin-PEG4-14-Cl [5]: react most efficiently
B5 | 10% |  |  | 
B6 |  | significantly improved | relatively unstable at temperatures above 30 °C | reaction with immobilized biotin-PEG4-14-Cl [5]: react most efficiently
B7 | 10% |  |  | 
B8 |  |  | retained significant labeling activity following incubation as high as 50 °C | signal relative to the respective parents [6]: considerably higher signal; reaction with immobilized biotin substrates ([5]; all biotin substrates tested): reacted poorly; production of active protein (fluorescent signal after labeling) [7]: more active protein after 48 hours; in vivo labeling performance compared to parent DhaA.H272F [8]: superior performance characteristics; half-life ([4]; at 50° C.): 58 min
B9 |  |  | stable up to temperatures of 40 °C | 
B10 |  |  |  | hydrolysis of FAP [9]: could not be detected
